This note sets out measurements from US20220127569A1, “METHODS OF PROMOTING THYMIC EPITHELIAL CELL AND THYMIC EPITHELIAL CELL PROGENITOR DIFFERENTIATION OF PLURIPOTENT STEM CELLS, RESULTING CELLS, AND USES THEREOF” (THE TRUSTEES OF COLUMBIA UNIVERSITY IN THE CITY OF NEW YORK, priority 2019, published 2022).

One data set concerns pluripotent cells. Nature of the data set: OCT4 expression (qPCR) in day 30 hES-TEP cultures after survivin inhibitor treatment. Type of data set: cell-based, human. The conditions noted are these: YM155 20 nM in the final 24 hours of culture, protocol #4c vs #4c+YM155. As for the experimental part: After 108 hours in total on low-adherence plates with endoderm induction media (described above), embryoid bodies were collected and, without being trypsinized, plated on matrigel-coated, 24-well tissue culture plates (approximately 50,000-70,000 cells/well) in SFD medium supplemented with 200 ng/mL recombinant human (rh) Noggin and 10 μM SB431542 (NS) (as described in established protocols Green et al. 2011), with Retinoic Acid (0.25 μM) and FGF8b 50 ng/mL (as a novel modification of this protocol) for 48 hours. […]
(§1) Quantitative Real-Time PCR Total RNA from clusters of ES cells differentiated for the indicated time with the indicated culture method was extracted using Trizol (Invitrogen), and Direct-zol RNA Miniprep Kit (Zymo Research) according to the manufacturer's instructions. […] Real-time quantitative PCR was performed in 20 ul volume using ABI Power SYBR Green PCR Master Mix on an ABI ViiA7 Thermocycler (Applied Biosystems Life Technologies). […] Quantification of each gene transcript was obtained by comparing the average of triplicate experimental CT values to a standard curve of serially diluted genomic DNA for each primer target and then normalized by dividing by the CT housekeeping gene b-Actin.
(Real-time PCR tracks product formation cycle by cycle.)

The subject of a further data set is NSG mice. The data set can be described thus: Teratoma formation after hES-TEP transplantation in mice. Format: in vivo, mouse. The note with it: mice grafted with day 30 hES-TEPs treated with YM155. As for the experimental part:
Six to ten week old NSG mice were thymectomized as described (Khosravi-Maharlooei et al. 2020) and allowed to recover for at least 3 weeks. After recovery, animals were conditioned with 1.8 Gy total body irradiation (TBI) via X-rays. Cryopreserved fetal swine thymus (60-90 days gestation) was thawed in Medium 199 supplemented with DNAse, gentamicin and HEPES as above. Fetal swine fragments (1-2 mm^3) were injected or not with 2×10^5 hES-derived TEPs with a 28 gauge syringe and coated with 50% matrigel (Corning) in Medium 199. Four to 24 hours after TBI, 1-2×10^6 hES-derived TEPs mixed with 1-2×10^6 thymic mesenchymal cells, 1-2×10^6 thymic mesenchymal cells alone, fetal swine thymus injected with hES-TEPs or fetal swine thymus alone were implanted beneath the kidney capsule and 2×10^5 fetal human CD34+ cells were injected intravenously. Peripheral human immune reconstitution was assayed every 2-3 weeks post-grafting after full recovery as indicated. Blood was collected from the tail vein and immune populations enriched by density gradient centrifugation with Ficoll as described above. […] Gene correlations were evaluated with Pearson Correlation Coefficient with p<0.05 considered significant, linear regression was also performed and r-square determined. Euthanasia due to teratoma growth was plotted on a Kaplan-Meyer plot and analyzed by Mantel Cox Log-rank test to determine p-value. […]

The test system of the next data set is ESCs. Nature of the data set: Flow cytometry / efficiency of definitive endoderm and anterior foregut endoderm induction. Format: cell-based, human. The note with it: day 4.5 dissociated embryoid bodies. The procedure:
The differentiation was performed as described Huang et al. 2014 in serum-free differentiation (SFD) medium consisting of DMEM/F12 (3:1) (Life Technologies) supplemented with N2 [Gibco (Life Technologies)], B27 (Gibco), ascorbic acid (50 μg/ml, Sigma), Glutamax (2 mM, Life Technologies), monothioglycerol (0.4 μM, Sigma), 0.05% bovine serum albumin (BSA) (Life Technologies) and 1% penicillin-streptomycin (Thermo Fisher Scientific, Waltham, Mass.). Cells were then briefly trypsinized (0.05%, 1 min at 37° C.) into single cell suspension and plated onto low attachment 6-well plates [Costar 2 (Corning Incorporated, Tewksbury Mass.)] to form embryoid bodies in serum-free differentiation medium containing human BMP4, 0.5 ng/ml, human bFGF, 2.5 ng/ml (R&D Systems) and human activin A, 100 ng/ml (R&D Systems) for 84 hours (3.5 days approximately) on low-adherence plates. Embryoid bodies were then collected, briefly trypsinized (0.05%, 1 min at 37° C.) into 3-10 small cell clumps and resuspended again in endoderm induction medium for another 24 hours. Cells were fed every 24-48 hr (depending on the density) and maintained in a 5% CO2/5% O2/90% N2 environment. […]
Human immune reconstitution and differentiation efficiency of hES-TEP cultures were determined by multi-parametric flow cytometry. […]
For orientation: In flow cytometry, cells or beads pass a laser one at a time.

The test system of a further data set is hESCs. Nature of the data set: qPCR gene expression (PAX9, FOXN1) in hESC-derived TEP cultures up to day 30. Format: cell-based, human. As for the experimental part: After 108 hours in total on low-adherence plates with endoderm induction media (described above), embryoid bodies were collected and, without being trypsinized, plated on matrigel-coated, 24-well tissue culture plates (approximately 50,000-70,000 cells/well) in SFD medium supplemented with 200 ng/mL recombinant human (rh) Noggin and 10 μM SB431542 (NS) (as described in established protocols Green et al. 2011), with Retinoic Acid (0.25 μM) and FGF8b 50 ng/mL (as a novel modification of this protocol) for 48 hours. For pharyngeal endoderm, the resulting cells were then treated for 24 hours with FGF8b (50 ng/mL) and Retinoic Acid ([…]) followed by 8 days with FGF8b (50 ng/mL) and Sonic Hedgehog (Shh) (100 ng/mL) (FIG. 1B). For the 3rd pharyngeal pouch specification, cells were then exposed to rhNoggin (200 ng/mL) for 6 days, and then to BMP4 (10 ng/mL) until day 30 of differentiation (FIG. 2A). To avoid the formation of teratomas after engrafting in mice, cells were also exposed to survivin inhibitor YM155 (20 nM) (Lee et al. 2013)) for 24 hours during the last step in the later experiments (FIG. 4A). During the entire process, cell cultures were maintained in a 5% C02/air environment at 37° C. Cells were fed every 24 hours.
as §1, with “instructions. NanoDrop 2000 spectrophotometer (ThermoFisher Scientific) was used to determine RNA concentration.” for “instructions.”

On to `COCCn1c2c([n+](Cc3cnccn3)c1C)C(=O)c1ccccc1C2=O` [YM155], for which, in the data set with pluripotent cells, the OCT4 expression entry is on record as “significantly reduced”. The animals developing teratomas in the data set on NSG mice is 3 of 15.

B1: Activin A: human activin A used in endoderm induction medium (protein, UniProt P08476 311-426, looked up)
Inhibin beta A chain: GLECDGKVNICCKKQFFVSFKDIGWNDWIIAPSGYHANYCEGECPSHIAGTSGSSLSFHSTVINHYRMRGHSPFANLKSCCVPTKLRPMSMLYYDDGQNIIKKDIQNMIVEECGCS
In the case of B1, the “co-expression of endoderm markers EpCAM and CXCR4, cells” value with ESCs was 98.3%.

B2: BMP4: human Bone Morphogenic Protein 4 (protein, UniProt P12644 293-408, looked up)
Bone morphogenetic protein 4: SPKHHSQRARKKNKNCRRHSLYVDFSDVGWNDWIVAPPGYQAFYCHGDCPFPLADHLNSTNHAIVQTLVNSVNSSIPKACCVPTELSAISMLYLDEYDKVVLKNYQEMVVEGCGCR
Consider B2, for which the “expression of FoxN1” value in the data set on hESCs (BMP4 added to day 15 cultures without prior Noggin, assayed at culture day 22 and 30, protocols #3b and #4b) is “failed to induce expression”. Also, the “FOXN1 expression day 30 vs day 21” value with hESCs (protocol #4c, before and after BMP4 exposure) is reported as “significantly higher”.

B3: Noggin: recombinant human Noggin, a BMP4 antagonist and/or inhibitor (protein, UniProt Q13253 28-232, looked up)
Noggin: QHYLHIRPAPSDNLPLVDLIEHPDPIFDPKEKDLNETLLRSLLGGHYDPGFMATSPPEDRPGGGGGAAGGAEDLAELDQLLRQRPSGAMPSEIKGLEFSEGLAQGKKQRLSKKLRRKLQMWLWSQTFCPVLYAWNDLGSRFWPRYVKVGSCFSKRSCSVPEGMVCKPSKSVHLTVLRWRCQRRGGQRCGWIPIQYPIISECKCSC
For B3, in the data set on hESCs (Noggin from day 16 to day 22, protocols #3c and #4c vs #3b and #4b, day 30), the PAX9 expression entry is “significantly increased”.
